{"source": "the DeepSol protein solubility set"}
{"assay": "soluble on expression in E. coli; label from the status in PepcDB or PDB records"}
{"sequence": "MRRGRGKGKKQNASAREDRGSGDEEKIPAYRRRGRPQKPMKDDFEEEEEEDDEEMVEKMEVEDEDEEIDDGSVTSKDLKERKRKMSNGSNTDLTEEENGLGSKPNTDDSTRSTSIGFRQNGSRRKSKPRRAAEAVVECNGV", "soluble on expression in E. coli": "soluble"}
{"sequence": "MRRKHDWLRETYRKSLEKIPERPVAHRTLSNIAPDPLYTPEDIGVLDPEYEEKRGFPGEFPYTRGVYGSMYRSKLWTMRMFAGFGTAEQTNERFKKLLKAGQTGLSVAFDLPTLMGYDSDHPLSKGEVGKCGVAVSSLADMEILFEGINLEEVTTSMTINSPANAIWAMYLAVAKKRGYDWKKLGGTIQNDILKEYIAQKEFIFPPEPSVKLVIDTFEWGPKNVPKWNFISVSGYHIREAGSTAVQELAWTLADGFEYVEAALKRGLDIDEFAPRISFFFDVHNDFFEEIAKFRAARRIWAKEMRYRYKAKNPQSWMLRTHAQTAGVSLTAQQPLNNIARVAIQALAAVLGGTNSLHTDAYDEALALPTEESATIALRTQQIIAYETGVTHTIDPLAGSYYVEWLTDEMERQAMEIIEEIRRMGGVVRAIEEGYFLRELAEASYRYQQEVERKERIIVGVNAFTDEIPLKVPIQLVDPEVERVQAERLARVRRERDPKRVEEALQGLRRAAVEGQNTMPHFVECALAYCTLGEMMDVLREVYGTYQEPAYV", "soluble on expression in E. coli": "soluble"}
{"sequence": "MRRLKRDPLERAFLRGYQNGITGKSRDLCPFTHPTTRQSWLNGWREGRGDNWDGLTGTAGLQRLNQLQHVLEHHHHHH", "soluble on expression in E. coli": "not soluble"}
{"sequence": "MRRLLKEQFEAELPEDIRFYMGGKSRVYAYKSCEFDEIASHRGIYFGTIERDGLRLSIEGSFIAGKLAKKNVIELDEESFGRWMRGEDIEADVKGYCIVKHGSYFAGCGKGNGRVLRNFVPKDRRVID", "soluble on expression in E. coli": "not soluble"}
{"sequence": "MRRSGNYNPSRWDVNFIQSLLSDYKEDKHVIRASELVTLVKMELEKETDQIRQLELIDDLQRMGLSDHFQNEFKEILSSIYLDHHYYKNPFPKEERDLYSTSLAFRLLREHGFQVAQEVFDSFKNEEGEFKESLSDDTRGLLQLYEASFLLTEGETTLESAREFATKFLEEKVNEGGVDGDLLTRIAYSLDIPLHWRIKRPNAPVWIEWYRKRPDMNPVVLELAILDLNIVQAQFQEELKESFRWWRNTGFVEKLPFARDRLVECYFWNTGIIEPRQHASARIMMGKVNALITVIDDIYDVYGTLEELEQFTDLIRRWDINSIDQLPDYMQLCFLALNNFVDDTSYDVMKEKGVNVIPYLRQSWVDLADKYMVEARWFYGGHKPSLEEYLENSWQSISGPCMLTHIFFRVTDSFTKETVDSLYKYHDLVRWSSFVLRLADDLGTSVEEVSRGDVPKSLQCYMSDYNASEAEARKHVKWLIAEVWKKMNAERVSKDSPFGKDFIGCAVDLGRMAQLMYHNGDGHGTQHPIIHQQMTRTLFEPFA", "soluble on expression in E. coli": "soluble"}
{"sequence": "MRSIYLCRHGESELNLRGRIGGDSGLSARGKQYAYALANFIRSQGISSLKVWTSHMKRTIQTAEALGVPYEQWKALNEIDAGVCEEMTYEEIQEHYPEEFALRDQDKYRYRYPKGESYEDLVQRLEPVIMELERQENVLVICHQAVMRCLLAYFLDKSSDELPYLKCPLHTVLKLTPVAYGCRVESIYLNV", "soluble on expression in E. coli": "soluble"}
{"sequence": "MRSQSTHSQSMRSDIYLLLATLLRDVPSAELCAFLAELDFEANGTEMAKAWQAMSAAAQNAQADSLADEYQELFIGIGRGEVVPFASWHLTGSLMEKPLADIRDDLSRLGLERDEQVREPEDHISALCETMAYLCEESGDENAAEETQQAFFNRHIAPWFGKLVSQIRQAPHAQFYLAVAQLLDAFLSLEQVAMTQAPSSRKNRYRIEVKNLTDKAEQ", "soluble on expression in E. coli": "not soluble"}
{"sequence": "MRSSKGGRGRQAAPKTAPTTVCYCDGKRELGSVEVVCSTCLKWFHGRCLKEFHELNSNGVPFMICYTFTCKQCRPTAEDWKAKKADLVQMCVTVLATLSAERLKADGKLSAEHVPEDFTYLSLKDEIVPYMNENWYMLTAIKQKKEWHQNLAPTLLKEKNIFVQHNDDDDLFALAEKNLSLLGPLHEAVKLIGKRPIERENREPRHIELPPIEGPKTRGASKRRHAEAPVTGKKQKLAADYSSTAAPNGVQIDIPFSKDNYRYYLTEVDPNVPEDPAWNQNQSSAYVIPSFHYRELLNPTVNVSSNDRAFQLSINGNSITGFEGYSMARASHGVSKGTWYFEVNFDDQPDDSHIRIGWSQSYASLQACVGYNKFSYGWRSKHGTKFHEAKGKKYHFGGFKQGDVLGCLIHLPVDKKLQIPANLPSEKYLPVSHKGFNLISFKANYFFEVQEESADIAKTLVEMPGSYIEFFHNGKSCGKAYENIYAGAYYPSISIFKSATATMNLGPKFRNLPRGATGIHARADEQQHEQTLSDMLYLVSKEVNLDHPPRVKREDDDDVKDIKKEIKQEI", "soluble on expression in E. coli": "not soluble"}
{"sequence": "MRSSTIPAITPAYDPWEAYVDIKEYGKLQLTNIEFTTTTLCNMRCEHCAVGYTLTMKDPEALPLDMLLRRLEEIPHLRSLSITGGEPMLSLKSVEQYVVPLLRYAHERGVRTQLNSNLTLDLSRYEPVIPYLDVLHISHNWGTVDDFVEGGFAMMERKPTRAQREKYFQRMLDNAKALANAGVMVSAETMLNKRTVRHLEAIHRQVVEEMGCQRHEIHPMYPSDFASALETLSLDELREAIHHLLDIRDENVWMLFGTLPFYPCSDNEEDVRLLKRLYESKNVTVRNDPDGRSRLNVNIFTGDVIVTDFGDEPPLGNIIHDSLPDVYDKWRRSKLARELLCHCPSARCLGPNVLVKQTYYRGVDFTKRSARIGR", "soluble on expression in E. coli": "not soluble"}
{"sequence": "MRTDLALDFSVNKENKTITIKREFAAVRAIVWEAFTRAEILDQWWAPKPWKAKTKSMDFKEGGTWLYAMVGPNGEEHWSICEYAIIKPIERFTGKDGFTDASGKLNTEMPRSNWDMRFIDKGEITEVQYHISYDDVAQLEATIQMGFKEGITMAMENLDELLVSGKKLEHHHHHH", "soluble on expression in E. coli": "soluble"}
{"sequence": "MRTHDDTWDIKTSVGATAVMVAAARAVETDRPDPLIRDPYARLLVTNAGAGAIWEAMLDPTLVAKAAAIDAETAAIVAYLRSYQAVRTNFFDTYFASAVAAGIRQVVILASGLDSRAYRLDWPAGTIVYEIDQPKVLSYKSTTLAENGVTPSAGRREVPADLRQDWPAALRDAGFDPTARTAWLAEGLLMYLPAEAQDRLFTQVGAVSVAGSRIAAETAPVHGEERRAEMRARFKKVADVLGIEQTIDVQELVYHDQDRASVADWLTDHGWRARSQRAPDEMRRVGRWVEGVPMADDPTAFAEFVTAERL", "soluble on expression in E. coli": "soluble"}
{"sequence": "MRTIVFDVDDTLYDQQQPFRNAMTKIFPNVATEDMHELYLRFRHHSDETFPKVLANEWSLDFMRFFRMNETLKDLNYPGISQEEGKIFQQVYEEELDNITMHPEVTKLLDTLQEKEIPMGIITNGPTDHQFKKVKQLNIEKWVPSQNIIISQSTGFQKPEKEIFDLACNQFCMEPEHTLYVGDSYDNDIVGARNGGWHSLWFNHRSRELPSCQPASHLAEVTCFTELCPTVEKLFNL", "soluble on expression in E. coli": "not soluble"}
{"sequence": "MRTKYILELFDTSEQHKPIARFESSTPFTAASVGERFDDIGWERLDGAGKIASPLSPKRYTVHSAKHLVIVEAGALVIKYCLNLEPFSGPSSPVWGDE", "soluble on expression in E. coli": "not soluble"}
{"sequence": "MRTLLDLDPKGKRVLVRVDYNVPVQDGKVQDETRILESLPTLRHLLAGGASLVLLSHLGRPKGPDPKYSLAPVGEALRAHLPEARFAPFPPGSEEARREAEALRPGEVLLLENVRFEPGEEKNDPELSARYARLGEAFVLDAFGSAHRAHASVVGVARLLPAYAGFLMEKEVRALSRLLKDPERPYAVVLGGAKVSDKIGVIESLLPRIDRLLIGGAMAFTFLKALGGEVGRSLVEEDRLDLAKDLLGRAEALGVRVYLPEDVVAAERIEAGVETRVFPARAIPVPYMGLDIGPKTREAFARALEGARTVFWNGPMGVFEVPPFDEGTLAVGQAIAALEGAFTVVGGGDSVAAVNRLGLKERFGHVSTGGGASLEFLEKGTLPGLEVLEG", "soluble on expression in E. coli": "soluble"}
{"sequence": "MRTLPILLLVIVGVVYCYPLNEDNVDLESDVAEMEGAELDRVKRASDHKLEKKLDEIMEKVEKIKDKIEENKEKREKKNKKKGNKKDEDEEEEEDKDKKKKDKKKNKDSEEEEDKKKDKKKKNDSSDESEEENKKRKNKRKN", "soluble on expression in E. coli": "not soluble"}
{"sequence": "MRTQTFPPSSSSSRTTHPKKNRHSSNSSSMALVTPAKSSTGAAPKQSSQSGWDYWTRVYSDDAQTTGTPRDVRISDMLSSESLIRAKLLFLNVPSLPSAHKNIILNLVKRELNHDISIQDVVVVPPAKWFLNFYRPEDALKVMKHLNGYSYRGHILAVRFCYPDGTYGDESALTELVQCTNSAKGRILEKKDIVQDTFAVECWTKTEFDSLKVFEKELTNLLKAHAYLPYHTVLQSMRNLFTCKVQSELSSMFISDALAQWPTGLIRIFNRNVKVVSNTMCLSSSSYYTQRIHDSALEGGCSVHRNSWEPTVPDDIRSEVQLIQYTNSFLGHFGPQNIDVDIPIRILAQSLRGTWPKTGPKLAALLTEISSGFVLINRVLYLSSNLHHHEKIIDNLACFQDDCTDVYFLPLSCTTEDQKGKTVDYEDI", "soluble on expression in E. coli": "not soluble"}
{"sequence": "MRVDLERQQHQFLRRTYGPQHRLTTQQALTVMRVAAREQTRYSQRTTQCVAAHLLEQRAAVQQELQRARQLQSGNVDDALDSLTELKDTVDDVRATLVDSVSATCDLDLEVDDAVLEHHHHHH", "soluble on expression in E. coli": "not soluble"}
{"sequence": "MRVEKAWFLADGAEAPEGLPEGGFREVALPHQWSLEGVEAEVGWYRLALPEAGPRRFLLSFGDYYQEAWLDGTYLGRHEGYFFPWVLELPKGKELFLRVSAPKEPLGVWPRFKRQIKGVFGQHDCRPGGTTARGQERGTGGLWGGVEVWAREEVALLGLAHRLFPRAGGWRLWVRLLVDAQRPFRERARLFLVPANFPGEALEREAVLEGEAGRAWREVVWDLPEMPLWEVWERGFPHLFRLEADLLGARLGVPLGFRTVEVDGEGWLLLNGKRLFLRGTNAIPTQWLAAYSEAMAQKDVALLKEANLNAVRVHAHVTHPAFYAACDREGVLVWQDFPLQWGYAPDEAFAQEALRQARAMVEVLGAHPSVYLWCAQNEPTHNRHALGPLLAAALRAADPTRPVKEASDFREHPYPGWYRGHYRDFLALPGAPLPSEFGAQALPRAELLRRVLGEAAWPPRWEVWAYHNFQPHETFRVARVEMGESLEEFVERSQDYQARLIEFAVHAYRRAKGKVVGYFQFMFVEPWEGITWAVLDVERVPKKGFFALKEASSPVLLSLVPYRERVEVGGPPCRRPGS", "soluble on expression in E. coli": "soluble"}
{"sequence": "MRVSLFLQKQIIECSKAFQPHSTRLQWPKSQDKVFVAMSGGVDSSFSAYLLKSQGYNVEGVFMRNWLDEDSAPSGCPAERDWATVQKVCKKLNISCRRFNFEKEYWNLVFEPSLDLYENGLTPNPDVSCNRQVKFGALFDALKKHCENNVKGDWWLASGHYAKSVVNIETNESHMCIPTDKRKDQTLFLCTIRKEALEKTIFPLHNWTKENVKKQASSAGFKEIAEKQESQGLCFVSPNVGRKFRKFLQRYLNFSDRPIKVIAGKNVVGEFSGNHGIWSLTVGERCGLSLPQAQSEYFGRWYVWKKDIKNNALYICRGTNNELLMSKCIYLKDWKWCGTKLQNLEKSALSCFVRVRHQQPLQPAKVTWRNPESVKIHFQDKQRAVTPGQVIAVYVNDVCLGGGMVDTVEPEKDFD", "soluble on expression in E. coli": "soluble"}
{"sequence": "MRVVVSIGGSVLAPGLDADQVDAHADAINELTDAGCEVGAVVGGGGVARDYIGTARELGANEIELDDIGVDVTRLNARLLIAALGGDAAPSPAEDYEDAGEAMRRGDIAVMGGVVAGQTTDAVSAALAEYTDADLLLYATSVPGVFSADPNEDADAEHFTRMTAGELVDIIADIEMNAGSSAPVDLLAAKLIERSGVRTIVLDGTDPRRIVDAVRFGEHDGTDVIPDGTDNQMTYWADNQELEHHHHHH", "soluble on expression in E. coli": "not soluble"}
{"sequence": "MRYFLCPGKTDMRKGMNSLCGVIHNKMGYDVRLGDVFIFINRQRTTMKLLHAEDGDLVLYIKRLEEGTFRLPEYDQQSRSYPMEWRDLVMMVKGINNGSAKRLKRLKALRKSDI", "soluble on expression in E. coli": "not soluble"}
